# Results taken from patent publication US20240018528A1, “A TUNABLE PHOSPHORYLATION-BASED FEEDBACK CONTROLLER OF MAMMALIAN GENE EXPRESSION” (Massachusetts Institute of Technology, priority 2020, published 2024).
# Test system: OmpR-VP64
# Experiment: Screen of EnvZ variants for kinase and phosphatase activity on OmpR-VP64-driven output
# Format: cell-based
# Settings: FIG. 3B
# Source text: The well-studied EnvZ-OmpR system was used to develop feedback controllers of the present disclosure, using separate kinase and phosphatase variants of EnvZ, and an OmpR-VP64 fusion protein as an activator for promoting transcription of a reporter protein. Kinase and phosphatase variants of the HK EnvZ through mutation and/or truncation (FIG. 3A). […] However, the phosphatase EnvZ activity was weak compared to the EnvZm2 kinase. To create a stronger phosphatase, a DHp domain of EnvZ was fused to a leucine zipper GCN4 domain, with GCN4 at the N-terminus and EnvZm2 at the C-terminus, to lock the DHp domain of an HK into fixed conformations (FIG. 3C). […]
# The phosphatase regulator was further modified to allow tunability by use of a small molecule. […] Expression of both proteins from the same nucleic acid and translation from the same mRNA, such as by separating coding sequences by a 2A motif or open reading frames IRES cassette, ensures maximal coupling of transcription and translation of the two proteins. […]
# For quantifying the effects of EnvZ variants and perturbations, fold-changes were calculated by dividing the median output level of each sample by that of the equivalent sample in the absence of the EnvZ variant or perturbation. […]
molecule,measurement,value
EnvZm2: kinase+/phosphatase− mutant of EnvZ containing a T247A mutation (SEQ ID NO: 3) (protein) MRRLRFSPRSSFARTLLLIVTLLFASLVTTYLVVLNFAILPSLQQFNKVLAYEVRMLMTDKLQLEDGTQLVVPPAFRREIYRELGISLYSNEAAEEAGLRWAQHYEFLSHQMAQQLGGPTEVRVEVNKSSPVVWLKTWLSPNIWVRVPLTEIHQGDFSPLFRYTLAIMLLAIGGAWLFIRIQNRPLVDLEHAALQVGKGIIPPPLREYGASEVRSVTRAFNHMAAGVKQLADDRTLLMAGVSHDLRAPLTRIRLATEMMSEQDGYLAESINKDIEECNAIIEQFIDYLRTGQEMPMEMADLNAVLGEVIAAESGYEREIETALYPGSIEVKMHPLSIKRAVANMVVNAARYGNGWIKVSSGTEPNRAWFQVEDDGPGIAPEQRKHLFQPFVRGDSARTISGTGLGLAIVQRIVDNHNGMLELGTSERGGLSIRAWLPVPVTRAQGTTKEG,kinase activity (phosphorylation of OmpR),particularly effective in phosphorylating OmpR
